The record followed here is patent publication US20130039923A1 (Novo Nordisk, published 2013).

Where two headings read alike, the source gives them in different places.

In test [1] the target is T1, recombinant human interleukin-20 (human, UniProt Q9NYY1 25-176).
T1 sequence: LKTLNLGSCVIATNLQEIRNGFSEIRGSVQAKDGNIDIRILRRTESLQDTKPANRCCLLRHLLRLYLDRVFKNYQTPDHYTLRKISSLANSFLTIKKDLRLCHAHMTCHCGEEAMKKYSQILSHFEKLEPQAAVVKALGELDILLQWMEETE
Nature of the test: cell-based or functional assay.

The next test has as its target T2, cynomolgus IL20 (cynomolgus monkey, UniProt Q9NYY1 25-176 (human entry)).
T2 chain: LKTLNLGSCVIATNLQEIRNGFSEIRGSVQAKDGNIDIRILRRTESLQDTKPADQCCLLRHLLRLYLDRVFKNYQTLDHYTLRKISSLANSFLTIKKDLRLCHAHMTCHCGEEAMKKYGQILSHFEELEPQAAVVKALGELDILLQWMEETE
Nature of the test: cell-based or functional assay.

A further test deals with T3, murine IL20 (mouse, UniProt Q9JKV9 25-176).
T3 sequence: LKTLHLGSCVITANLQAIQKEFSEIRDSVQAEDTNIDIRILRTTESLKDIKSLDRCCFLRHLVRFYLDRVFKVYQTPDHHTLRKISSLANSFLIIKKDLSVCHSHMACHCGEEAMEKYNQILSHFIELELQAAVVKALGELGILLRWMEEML
The test can be described thus: cell-based or functional assay.

The target in test [2] is T4, Peptide no. 43 (Figure 8A).
T4 construct: Ala-scan peptide on the array; also called Peptide no; P77A
T4 peptide: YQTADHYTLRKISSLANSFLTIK
The test can be described thus: Ala-scan peptide array of hIL20 74-96 on cellulose; fluorescein-labelled antibody; fluorescence as OD.
Experimental: (§1) The screenings were done using fluorescence labelled antibodies. The labelling was done by gel-filtering the antibody stock against 1% NaHCO3, using NAP5 column (GE Healthcare according the manual from manufacturer. This was followed by adding 25 mole equivalents of 5(6)-carboxyfluorescein N-hydroxysuccinimide ester (Sigma, C1609) dissolved in DMSO. The coupling was allowed to continue for 2 hours followed by a gelfiltration against TRIS washing buffer (50 mM TRIS, pH=7.4, 0.15M NaCl, 0.1 M ArgHCl, 0.05% Tween 20) in order to removed uncoupled fluorescein.
(§2) Screening of arrays were done by adding 10 μl of antibody to 30 ml incubation buffer (0.5% BSA, 50 mM TRIS, pH=7.4, 0.15M NaCl, 0.1 M ArgHCl, 0.05% Tween 20). The sheets were incubated for 1-2 hours, followed by washing five times with washing buffer. […] The fluorescence intensity were measured and transformed into digits that were exported to Prism 5 (Graph Pad Software, USA) for further analysis.

Test [3] has as its target T5, Peptide no. 48 (Figure 8A).
T5 construct: Ala-scan peptide on the array; also called Peptide no; L82A
T5 peptide: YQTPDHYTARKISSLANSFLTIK
The description is as above.
Experimental: as §1, §2

Test [4] addresses T6, Peptide no. 53 (Figure 8A).
T6 construct: Ala-scan peptide on the array; also called Peptide no; S87A
T6 peptide: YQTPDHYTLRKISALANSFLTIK
The test is described as above.
Experimental: as §1, §2

Test [5] deals with T7, Peptide no. 58 (Figure 8A).
T7 construct: Ala-scan peptide on the array; also called Peptide no; L93A
T7 peptide: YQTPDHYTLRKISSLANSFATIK
The description is as above.
Experimental: as §1, §2

Test [6] deals with T8, Peptide no. 86 (Figure 6A).
T8 construct: also called Peptide no
T8 peptide: NYQTPDHYTLRKISSLAN
The test can be described thus: 18mer hIL20 peptide array on cellulose, 4 residue walk; fluorescein-labelled antibody; fluorescence as OD.
Experimental: as §1, §2

The target of test [7] is T9, Peptide no. 87 (Figure 6A).
T9 construct: also called Peptide no
T9 peptide: PDHYTLRKISSLANSFLT
Described as above.
Experimental: as §1, §2

The target in test [8] is T1, recombinant human interleukin-20. Nature of the test: SPR (Biacore 3000/T100), antibody amine-coupled on CM5, recombinant hIL20 injected 3.125-100 nM, 1:1 Langmuir, 25 C; antibody from HEK293. (In general: SPR reads the build-up and loss of mass on a sensor chip optically.)
Experimental: Affinity studies were performed using a direct binding procedure, with the monoclonal antibody covalently coupled via free amine groups to the carboxymethylated dextrane membrane (CM5) on the sensor chip surface. […] The kinetic parameters for the interaction could be calculated using a 1:1 interaction Langmuir fitting model.
The purified monoclonal antibodies were immobilized in individual flow cells on a CM5 type sensor chip. Immobilizations were performed using a standard amine coupling procedure, aiming for an immobilization level of 1000 Resonance Units (RU). The antibodies were diluted to 5 μg/ml in 10 mM NaAc pH 5.0. […] Association (injection) was 3 min., followed by a 30 min. dissociation (wash) period. Flow rate was 30 μl/min. Experiments were performed at 25° C. Regeneration of the surface following each cycle, was accomplished by injection of 30 sec. pulse of 10 mM Glycin-HCl pH 1.8, at a 30 ul/min flow rate. Detection in all flow cells simultaneously. Flow cell No. 1 contained no immobilized antibody, and was used for subtraction of background and bulk. […] Data was inspected for mass-transport limitations prior to calculation of the kinetic parameters. Experiments were performed on Biacore 3000 and T100 instruments. Data was evaluated using Biaeval 4.1 and Biacore T100 evaluation software.
Test [9] deals with T8, Peptide no. 86 (Figure 6A). Nature of the test: 18mer hIL20 peptide array on cellulose, 4 residue walk; fluorescein-labelled antibody; fluorescence as OD.
Experimental: as §1, §2
Test [10] deals with T9, Peptide no. 87 (Figure 6A). The description is as above.
Experimental: as §1, §2

Usually Kd stands for a measure of binding affinity in units of concentration. Broadly, the koff is a measure of how fast the partners let go of each other. In general, kon refers to a measure of how fast the partners come together.

B1: human anti-hIL20 monoclonal antibody 15D2 (antibody, V domains shown)
VH: QVQLVQSGAEVKRPGASVKVSCKASGYTFTNDIIHWVRQAPGQRLEWMGWINAGYGNTQYSQNFQDRVSITRDTSASTAYMELISLRSEDTAVYYCAREPLWFGESSPHDYYGMDVWGQGTTVTVSS
VL: AIQLTQSPSSLSASVGDRVTITCRASQGISSALAWYQQKPGKAPKLLIYDASSLESGVPSRFSGSGSGTDFTLTISSLQPEDFATYYCQQFNSYPLTFGGGTKVEIKR
notes: also called 15D2-wt; 15D2 wild-type
For the molecule B1, the “efficacy (percentage inhibition) of IL20-induced proliferation of BaF-3(hIL20R)” value (in test [1]; with cynomolgus IL20; in the test with murine IL20) was ~100% throughout. The binding result in test [2], in test [3], in [4], in test [5], in test [6] and in test [7] was “binds” throughout. For the same molecule, in [8], the Kd is 0.032 nM. In test [8], the koff worked out at 6.3e-05 s⁻¹. In addition, in test [8], the kon worked out at 1.9e+06 M⁻¹ s⁻¹.

B2: human anti-hIL20 monoclonal antibody 5B7 (antibody, human IgG4, V domains shown)
VH: QVQLVQSGAEVKRPGASVKVSCKASGYTFSSHIMHWVRQAPGQRLEWMGWINAGYGNTKYSQNFQDRVTITRDTSASTAYMELISLRSEDTAVYYCAREPLWFGELSPHDYYGMDVWGQGTTVTVSS
VL: AIQLTQSPSSLSASVGDRVTITCRASQGISSALAWYQQKPGKAPKLLIYDASSLESGVPSRFSGSGSGTDFTLTISSLQPEDFATYYCQQFNSYPLTFGGGTKVEIKR
notes: described as human IgG4; also called 5B7-wt
For B2, the binding result in test [9] and in test [10] was “binds” each time.
